Reference: patent US20220356229A1

Target: SARS-CoV-2 full length Spike protein, wild type, expressed on the surface of transiently transfected CHO cells (SARS-CoV-2), P0DTC2
Settings: remark: other sources report otherwise

B1: antibody 262 (antibody, V domains shown)
VH: QVQLVESGGGVVQPGRSLRLSCAASGFTFSSYAMHWVRQAPGKGLEWVAVISYDGSNKYYADSVKGRFTISRDNSKNTLYLQMNSLRAEDTAVYYCARDGGELLWFGELDYYGMDVWGQGTTVTVSS
VL: SYELTQPSSVSVSPGQTARITCSGDVLAKKYARWFQQKPGQAPVLVIYKDSERPSGIPERFSGSSSGTTVTLTISGAQVEDEADYYCYSAADNNRGVFGGGTKLTVL
For B1, the median fluorescence intensity, fold over isotype control (fold over isotype) was 0.89.
